{
  "source": "patent US20240317845A1",
  "about": "(NINGBO SANSHENG BIOLOGICAL TECHNOLOGY, published 2024)",
  "key": {"[1]": {"molecular_target": "T1, 6-25 fragment of inhibin α-subunits coupled to chicken ovalbumin (OVA) (porcine (fragment said to be 100% …, UniProt P01012 2-386, chemically coupled to chicken ovalbumin (OVA)))", "T1 construct": "also called antigenic peptide; 6-25 fragment of inhibin a subunits", "T1 sequence (peptide, as listed by the source limits assumed, chain 1 of 2)": "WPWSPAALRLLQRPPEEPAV", "T1 sequence (P01012 2-386 limits assumed, chain 2 of 2)": "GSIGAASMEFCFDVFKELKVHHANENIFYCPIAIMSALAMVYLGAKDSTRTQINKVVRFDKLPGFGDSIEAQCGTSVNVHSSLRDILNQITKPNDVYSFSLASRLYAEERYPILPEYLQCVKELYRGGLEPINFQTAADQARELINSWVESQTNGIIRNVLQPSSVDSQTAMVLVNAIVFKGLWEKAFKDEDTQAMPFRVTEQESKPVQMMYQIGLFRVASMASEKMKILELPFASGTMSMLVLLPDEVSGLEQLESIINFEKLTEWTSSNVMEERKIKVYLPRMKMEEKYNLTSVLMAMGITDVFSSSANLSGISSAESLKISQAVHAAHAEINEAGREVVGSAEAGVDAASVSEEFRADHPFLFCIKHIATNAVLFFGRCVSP", "assay": "indirect ELISA, plate coated with 6-25 fragment-OVA, culture supernatant, replicate 2", "procedure": "(§1) The 6-25 fragment of inhibin α-subunits coupled to chicken ovalbumin (OVA) were diluted to a sodium bicarbonate solution having a pH9.6 at a concentration of 10 μg/ml, and 100 μl per well was added to the microtiter plate (96 well plate). The plate was set aside overnight at 2-8° C. overnight, and taken out for washing and then patted dry next day, 5% BSA was added into the plate to block, 200 μl per well, and incubated at 37° C. for 1 h;\n(§2) The plate was washed and patted dry. 100 μl of the fused culture supernatant was taken under aseptical conditions, added to the microtiter plate, and incubated at 37° C. for 1 h;\n(§3) After washing the plate, chromogenic solution was added into the plate, 100 μl per well, and incubated at 37° C. for 5-10 minutes. 50 μl of stop solution was added into the plate, and the absorbance value was read at a wavelength of 460 nm."}, "[2]": {"molecular_target": "T1, 6-25 fragment of inhibin α-subunits …", "assay": "indirect ELISA, plate coated with 6-25 fragment-OVA, culture supernatant, replicate 1", "procedure": "as §1, §2, §3"}},
  "data": [
    {"binder": "anti-inhibin monoclonal antibody 1E5 secreted by hybridoma cell line 1E57 (antibody, V domains shown, Mouse hybridoma antibody; Tested as culture supernatant, as ascites and as Protein G purified ascites antibody; also called 1E57 culture supernatant; ascites-derived monoclonal antibody 1E5) VH: EVKLVESGPELKKPGETVKISCKASGYTFTDYSMHWVKQAPGKGLKWMGWINTETGEPTYADDFKGRFAFSLETSASTAYLQINNLKNEDTATYFCAYYGPPTYSLDYWGQGASVTVSS VL: DIQMTQTTSSLSASLGDRVTISCRASQGISNYLNWYQQKPDGTVKLLIYYTSRLLSGVPSRFSGSGSGTDYSLTISNLEQEDIATYFCQQGYTLPFTFGSGTKLEIK", "values": [
      {"measurement": "absorbance at dilution ratio 200", "setting": "[1]", "value": 3.25, "unit": "absorbance"},
      {"measurement": "absorbance at dilution ratio 400", "setting": "[1]", "value": 2.36, "unit": "absorbance"},
      {"measurement": "absorbance at dilution ratio 800", "setting": "[1]", "value": 2.08, "unit": "absorbance"},
      {"measurement": "absorbance at dilution ratio 1600", "setting": "[1]", "value": 1.9, "unit": "absorbance"},
      {"measurement": "absorbance at dilution ratio 3200", "setting": "[1]", "value": 1.43, "unit": "absorbance"},
      {"measurement": "absorbance at dilution ratio 6400", "setting": "[1]", "value": 0.831, "unit": "absorbance"},
      {"measurement": "absorbance at dilution ratio 12800", "setting": "[1]", "value": 0.648, "unit": "absorbance"},
      {"measurement": "absorbance at dilution ratio 25600", "setting": "[1]", "value": 0.398, "unit": "absorbance"},
      {"measurement": "absorbance at dilution ratio 51200", "setting": "[1]", "value": 0.256, "unit": "absorbance"},
      {"measurement": "absorbance at dilution ratio 102400", "setting": "[1]", "value": 0.189, "unit": "absorbance"},
      {"measurement": "absorbance at dilution ratio 200", "setting": "[2]", "value": 3.31, "unit": "absorbance"},
      {"measurement": "absorbance at dilution ratio 400", "setting": "[2]", "value": 2.8, "unit": "absorbance"},
      {"measurement": "absorbance at dilution ratio 800", "setting": "[2]", "value": 2.92, "unit": "absorbance"},
      {"measurement": "absorbance at dilution ratio 1600", "setting": "[2]", "value": 2.28, "unit": "absorbance"},
      {"measurement": "absorbance at dilution ratio 3200", "setting": "[2]", "value": 1.69, "unit": "absorbance"},
      {"measurement": "absorbance at dilution ratio 6400", "setting": "[2]", "value": 1.28, "unit": "absorbance"},
      {"measurement": "absorbance at dilution ratio 12800", "setting": "[2]", "value": 0.823, "unit": "absorbance"},
      {"measurement": "absorbance at dilution ratio 25600", "setting": "[2]", "value": 0.613, "unit": "absorbance"},
      {"measurement": "absorbance at dilution ratio 51200", "setting": "[2]", "value": 0.359, "unit": "absorbance"},
      {"measurement": "absorbance at dilution ratio 102400", "setting": "[2]", "value": 0.263, "unit": "absorbance"}
    ]}
  ]
}
